# Reference: PMC9651203
# Tests used:
# [1] = target: DnaK (protein used for surface plasmon resonance) (Mycoplasma fermentans); assay: SPR; BIAcore T100, 25°C, HBS-EP (10 mM HEPES, 150 mM NaCl, 0.05% surfactant P20, pH 7.4, 3 mM EDTA); DnaK (2220 RU) amine-coupled on CM5 chip, PARP1 as analyte at 35 ul/min, 250 s association, 600 s dissociation; preliminary kinetic analysis
# [2] = target: DnaK (protein used for surface plasmon resonance) (Mycoplasma fermentans); assay: SPR; BIAcore T100, 25°C, HBS-EP (10 mM HEPES, 150 mM NaCl, 0.05% surfactant P20, pH 7.4, 3 mM EDTA); DnaK (2274.9 RU) amine-coupled on CM5 chip, DnaK as analyte at 35 ul/min, 120 s association, 600 s dissociation; preliminary kinetic analysis; self-binding (homodimer by the paper's words)
Substance,Kd [1] [nM],Kd [2] [nM]
PARP1 (protein used for surface plasmon resonance) (from UniProt P09874 1-1014) (natural protein),25,
DnaK (protein used for surface plasmon resonance) (natural protein),,29.6
